The values below come from the DeepSol protein solubility set.

The series in a line: soluble on expression in E. coli; label from the status in PepcDB or PDB records.
In the case of “MIEIKNLTLQRGLKVLLDKANATVNPGQRVGLIGKNGTGKSSLFALIKGEITQDGGDVSIPKNWRLASVSQETPDLDISALDYVLQGDAELQAFQTALRQAEAQNDGMKQAEYHAKLEE”, the “soluble on expression in E. coli” value is “not soluble”.

For the sequence “MNKEEQVMMSLRELFNKMAWLNKLKMEDSLKGYKPSEVHYIECIGKNVDSNVTKLAKSLYMTRGAISKMTKKLIEKNIVESYQKADNKKEIYFRLTEKGHEIYKLHENLHKEFQERDKVVFEQVTDEQFESMLSFIEKYSKHLDSEIKKLGIDTKLE”, the “soluble on expression in E. coli” value is reported as “not soluble”.

In the case of “MGERIIPKNMKPMNGMLLEHLARYYFSTPYASGRVLDIACGTGYGSVMVAKTRKTEVDQVLGVDFDADVIHYAKQNYYHPKVSFLVGDAMDPYLRNQIGTFDTILSFETIEHVKDDRLFIERMRQLLKKDGTLVLSTPFGQGRGKPSDEPFHYHQLTEEEFRSLFDSFSEKEVFYQRGVTIEPKRTNVHYAFGVAVCKLEHHHHHH”, the “soluble on expression in E. coli” value is listed as “not soluble”.

Take “MRSISVGLDREESGSDGLCLGLVVLATLAAGFVAGSDVLRCWGFGPATGDVCLWVEAGFWRCPLPGGGADGQGPGFWDAALREARMFCRSCVGLRMIGWRR”: the “soluble on expression in E. coli” value was “not soluble”.

In the case of “MGSSHHHHHHSSENLYFQGHMSDLPRISVAAPRLDGNERDYVLECMDTTWISSVGRFIVEFEKAFADYCGVKHAIACNNGTTALHLALVAMGIGPGDEVIVPSLTYIASANSVTYCGATPVLVDNDPRTFNLDAAKLEALITPRTKAIMPVHLYGQICDMDPILEVARRHNLLVIEDAAEAVGATYRGKKSGSLGDCATFSFFGNKIITTGEGGMITTNDDDLAAKMRLLRGQGMDPNRRYWFPIVGFNYRMTNIQAAIGLAQLERVDEHLAARERVVGWYEQKLARLGNRVTKPHVALTGRHVFWMYTVRLGEGLSTTRDQVIKDLDALGIESRPVFHPMHIMPPYAHLATDDLKIAEACGVDGLNLPTHAGLTEADIDRVIAALDQVLV”, the “soluble on expression in E. coli” value is given as “soluble”.

In the case of “MTSVIPEQRNNPFYRDSATIASSDHTERGEWVTQAKCRNGDPDALFVRGAAQRRAAAICRHCPVAMQCCADALDNKVEFGVWGGLTERQRRALLRKKPHITNWAEYLAQGGEIAGV”, the “soluble on expression in E. coli” value is “not soluble”.

On to “MNNKRTKGENVYQLVQKRLKFLFNEFDNIYVSFSGGKDSGVLLNLCIQYIREHNLDRKIGVYHMDYEAQYQMTTEYVEQTFRENQDILEIYHVCVPFKVVTCASMFQTYWRPWDESMHAHWVRPMPKNCYKKEDFPFYNEEMWDYTFQTSFASWYHKKHDAVRTCCLVGIRTQESLDRWRTIHGNNRLNSYHNLMWTRRLGYDLYNAYPIYDWTTEDIWTAYARFKWPFNQMYELYYK”, for which the “soluble on expression in E. coli” value is recorded as “not soluble”.

Regarding “AQSVPWGISRVQAPAAHNRGLTGSGVKVAVLDTGISTHPDLNIRGGASFVPGEPSTQDGNGHGTHVAGTIAALNNSIGVLGVAPNAELYAVKVLGASGSGSVSSIAQGLEWAGNNGMHVANLSLGSPSPSATLEQAVNSATSRGVLVVAASGNSGAGSISYPARYANAMAVGATDQNNNRASFSQYGAGLDIVAPGVNVQSTYPGSTYASLNGTSMATPHVAGAAALVKQKNPSWSNVQIRNHLKNTATSLGSTNLYGSGLVNAEAATR”, the “soluble on expression in E. coli” value is on record as “soluble”.

Regarding “MKCLVTGGNVKVLGKAVHSLSRIGDELYLEPLEDGLSLRTVNSSRSAYACFLFAPLFFQQYQAATPGQDLLRCKILMKSFLSVFRSLAMLEKTVEKCCISLNGRSSRLVVQLHCKFGVRKTHNLSFQDCESLQAVFDPASCPHMLRAPARVLGEAVLPFSPALAEVTLGIGRGRRVILRSYHEEEADSTAKAMVTEMCLGEEDFQQLQAQEGVAITFCLKEFRGLLSFAESANLNLSIHFDAPGRPAIFTIKDSLLDGHFVLATLS”, the “soluble on expression in E. coli” value is “soluble”.

With “MNVLLMAYGTPYAPEEVEPYYTDIRRGRRPSEELLKELAERYEAIGKSPLNEITLAQAVRLQALLNLEAPPYPKRLLSPFPPRAPHGPARVYVGTKHWHPSIGEAVAAMHEDGVRRAVAIVAAPHYSLRSVAEYREKVDSALKALPEPIDFVWVESYEAHPGLIAAYARRLEEVIWRLKNPGKAAYVFTAHSIPLSAVEKGDPYPRQVEKTAELIAKKLALPRFHVAYQSAGRTPEPWLGPDINELLRTLKEEGYEEVAVQAVGFPADHLEVFYDLDLEAQATARELGLRLLRARSLNADLDYIQVLKDLVEAAWPR”, the “soluble on expression in E. coli” value is “soluble”.

Consider “MGSDKIHHHHHHMKNSAPNKDGSIEANLTDLQVQTELYQWLSLVSHQRDKQAFTELFQFFAPKIKRFGMQRLGSNDKANELVQETMSNVWRKAHLYDGEKGAATTWVYTVMRNACFDMLRRIKTRNEQLLGDDIWPVEQALAENNPESETFSDHLMEQHMREHINKLPSSQQTVVKGVYFQSLSQEQLAQQLDVPLGTIKSRLRLALARLKLQMRDEYHD”, for which the “soluble on expression in E. coli” value is on record as “not soluble”.

Take “MHHHHHHSSGVDLGTENLYFQSNAMTAPSQVLKIRRPDDWHVHLRDGDMLKTVVPYTSEIYGRAIVMPNLASPITTVDAAIAYRQRILDAVPAGHDFTPLMTCYLTDSLDADELERGFHEGVFTAAKLYPANATTNSSHGVTSVDAIMPVLERMEKLGIPLLVHGEVTHADVDIFDREARFIDTVMEPLRQRLTALKVVFEHITTKDAAQYVRDGNDYLAATITPQHLMFNRNDMLVGGIRPHLYCLPILKRNIHQQALRELVASGFTRAFLGTDSAPHSRHRKETSCGCAGCFNAPSALGSYAAVFEEMNALAHFEAFCSLNGPQFYGLPMNTGWVELVRDEQQIPGNIALADDSLVPFLAGETVRWSVKK”: the “soluble on expression in E. coli” value is “soluble”.

For the sequence “MAGDPMLTAPPKEAARPTLMPRAQSYKDLTHLPAPTGKIFVSVYNIQDETGQFKPYPASNFSTAVPQSATAMLVTALKDSRWFIPLERQGLQNLLNERKIIRAAQENGTVAINNRIPLQSLTAANIMVEGSIIGYESNVKSGGVGARYFGIGADTQYQLDQIAVNLRVVNVSTGEILSSVNTSKTILSYEVQAGVFRFIDYQRLLEGEVGYTSNEPVMLCLMSAIETGVIFLINDGIDRGLWDLQNKAERQNDILVKYRHMSVPPESLEHHHHHH”, the “soluble on expression in E. coli” value is reported as “not soluble”.

Take “MKIPASSPQDTTNNNNNTNSTDSNHLSMDEHVMRSMDWDSIMKELELDDDSAPNSLKTGFTTTTTDSTILPLYAVDSNLPGFPDQIQPSDFESSSDVYPGQNQTTGYGFNSLDSVDNGGFDFIEDLIRVVDCVESDELQLAQVVLSRLNQRLRSPAGRPLQRAAFYFKEALGSFLTGSNRNPIRLSSWSEIVQRIRAIKEYSGISPIPLFSHFTANQAILDSLSSQSSSPFVHVVDFEIGFGGQYASLMREITEKSVSGGFLRVTAVVAEECAVETRLVKENLTQFAAEMKIRFQIEFVLMKTFEMLSFKAIRFVEGERTVVLISPAIFRRLSGITDFVNNLRRVSPKVVVFVDSEGWTEIAGSGSFRREFVSALEFYTMVLESLDAAAPPGDLVKKIVEAFVLRPKISAAVETAADRRHTGEMTWREAFCAAGMRPIQQSQFADFQAECLLEKAQVRGFHVAKRQGELVLCWHGRALVATSAWRF”: the “soluble on expression in E. coli” value is “soluble”.

On to “MSLEFYIADFKQIKEGKVTDIYFERTLKTLEYLGIKDAKVRMEVHSYGLPKGYEWALFTGLEEVLHLLEGVPVNVYAMPEGTLFKEIEPVMIIEGNYLDFGIYETAFLGILRHYSSISTKAARLKFLAMDKTLFFFGLRSLHPALAPMADRAAYIGGMDGVSGAMSKEYLGVDPSGTMPHALMLIVGDNVKAWKAFDEAMGSEVPRITLVDTFEDERTEALKAATLLGKKLYGIRLDTPSSRRGNFRKIIQEVKWTLKIHGYDHVKIFASGGIDEDDIINLRDIVDGFGIGTSIAFPPSVDFSADIVEKFVDGKWVPFTKRGKWPGAKQVYRCGKLNDVITLMDQEHPSSDCKPLLQKYMENGKIIKPLPSPKEIREYVIKQLTELQSSEGHHHHHH”, for which the “soluble on expression in E. coli” value is on record as “soluble”.

As for “MHHHHHHSSGVDLGTENLYFQSNAMKKEIASHLLEIGAVFLQPNDPFTWSSGMKSPIYCDNRLTLSYPKVRQTIAAGLEELIKEHFPTVEVIAGTATAGIAHAAWVSDRMDLPMCYVRSKAKGHGKGNQIEGKAEKGQKVVVVEDLISTGGSAITCVEALREAGCEVLGIVSIFTYELEAGKEKLEAANVASYSLSDYSALTEVAAEKGIIGQAETKKLQEWRKNPADEAWITA”, the “soluble on expression in E. coli” value was “soluble”.

Regarding “KTQGFLTMSRRRISCKDLGHADCQGWLYKKKEKGSFLSNKWKKFWVILKGSSLYWYSNQMAEKADGFVNLPDFTVERASECKKKHAFKISHPQIKTFYFAAENVQEMNVWLNKLGSAVIHQESTTKDEECYSESEQEDPEIAAETPPPPHASQTQSLTAQQASSSSPSLSGTSYSFSSLENTVKTPSSFPSSLSKERQSLPDTVNSLSAAEDEGQPITFAVQVHSPVPSEAGIHKALENSFVTSESGFLNSLSSDDTSSLSSNHDHLTVPDKPAGSKIMDKEETKVSEDDEMEKLYKSLEQASLSPLGDRRPSTKKELRKSFVKRCKNPSINEKLHKIRTLNSTLKCKEHDLAMINQLLDDPKLTARKYREWKVMNTLLIQDIYQQQRASPAPDDTDDTPQELKKSPSSPSVENSI”, the “soluble on expression in E. coli” value is given as “soluble”.

Regarding “MSLRAVVTMGHGDLDQLVLHPDWPRPDPEPGEVLIRVGACGLNNTDVNTRSGWYSKTVTDATTGGAFDEVGEDDPTWGGAPITFPRIQGADVCGTIVAVGAGVDAARIGERVITDGWLRDADAPEDMNKTGYFGSERNGGFAEYTTIPSSNALDVNSTLSDAELATFSCSYSTAEGMLTRARVTADDTVLIPGASGGVGGALVQLAKRRGARVIAIASEGKHSDVAALGPDMILPRAPAHLRSALGDERITVVADVVGGPYWPSLIDILERGGRYTCSGAIAGPMVSLDLRTFYLRDLTFTGSTVIDLEVMPNIVRYIEEGAIKPSLAATYPLEDLRAAQSAFIAKEHTGNIVVTEGHHHHHH”, the “soluble on expression in E. coli” value is “not soluble”.

As to “MKLIGIVGSNADSSYNRLLLQYIGKEFYKMFDLEILEIKDIPMFNQSKDQTNSVLIQNMNRKILQADGVIIATPEHNHTIPAGLKSVLEWLSFKIHPLENKPVMIVGCSYYDQGTSRAQLHLRQILDAPGVNAIVMPGNEFLLGKAKEAFDENGNLIAEGTRQFLESTLQKFVEFIDVISKLEGAKPKDLPEDLHAKGTIETTIEGVDMAADDWVEQAAEAVQAVEGDTYVKLDRGILTVDQLNYFLKSMPMELTYADSNNQFLYYNKKMAAEEMFAKRQPGQVGNPLANCHPPKALKNVEWVIQQLRSGKTDAIRVHVPMHGPDTYVVHNYQAMYDDNGNYAGINEYILDFKPIVDWYLKQTGQELVGGKNVDAVSGASKKEAPETADSVSSASVHEEESATEKPTVDSVSSASIKE”, the “soluble on expression in E. coli” value is “not soluble”.

For the sequence “MKAKTLGELRRTYPLEKLRRTVKDEARENLREKLRRGERLFPGIHGYEDTVIPALVQAILAKQNFILLGTRGQAKSRILRSLTSLLDEEVPALATELRDNPLHPISPEGKRLLEEAGDDAPIVWLSREDRYVEKLATPDTTVADLLGDMDPIKAARRGTGMADLESIHYGLLPRANRGIFAVNELADLAPKVQVALFNILEEGDVQIRGYPLRLPLDVWLVFTANPQDYTARGRIVTPLKDRIGSEIRTHYPRSLEEGARISAQEAYVPEGVLVPEWVRLSVEAVAFVAREDRRVDQTAGVSQRLAISLLEVVAASAERRALLHGGRPVARPLDLYQGLPAITGKLELEYEGELQGAERVAREIVQRAFGLVLPRYRLRTEPIVAHFEEGNLLTLPEGDVEEALKAMAGVPGLLEAARALAEGEAPEVLLSAGEFVLEGLVGRRKLSRGEATYQAAERPRSYGN”, the “soluble on expression in E. coli” value was “soluble”.
